# Test results from article PMC6422494.
# Biological target: GST-stx-1A (syntaxin-1A, GST fusion, immobilised on glutathione-sepharose beads) (UniProt P32851)
# Test: pull-down; GST-stx-1A immobilised on glutathione-sepharose beads; one prey protein (5 µM), 20 hr, 4°C; 100 mM NaCl, 20 mM Tris, 1 mM DTT, 1 mM EDTA, 0.5% Triton X-100, pH 7.4; four washes; SDS-PAGE, Coomassie, molar retention ratio by densitometry
# Sequence of UniProt P32851 (P32851 1-262): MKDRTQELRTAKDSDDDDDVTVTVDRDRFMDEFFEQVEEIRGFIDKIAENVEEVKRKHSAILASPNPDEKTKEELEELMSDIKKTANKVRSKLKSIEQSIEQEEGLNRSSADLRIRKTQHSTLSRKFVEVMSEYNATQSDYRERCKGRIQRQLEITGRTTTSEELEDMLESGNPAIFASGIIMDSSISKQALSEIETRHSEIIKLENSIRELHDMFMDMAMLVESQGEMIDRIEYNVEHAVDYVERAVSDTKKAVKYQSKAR
substance,measurement,value
"SN25 L^GGS (6xHis-tagged, recombinant; whole linker aa 83-141 substituted by a flexible G/S peptide) (from UniProt P60881-2 1-82; P60881-2 142-206) (natural protein)","molar ratio bound, percent lower than WT",50 % lower
